Data published in patent publication US9353421, “Aptamers that are specific for immunoglobulin-binding cell wall proteins” (Helmholtz-Zentrum für Umweltforschung GmbH-UFZ).

Legend:
[1] = target: T1, Protein A (native, biotinylated) (Staphylococcus aureus, UniProt P02976 P02976:37-485); test: pulldown; magnetic bead binding; complete loss of binding; 10 mM MgCl2, 21 C; conditions: tags: biotin, immobilized on streptavidin Dynabeads M-280; Sigma-Aldrich P2165; label: fluorescein
Protocol: (§1) The binding experiments were carried out under the SELEX conditions. 2.5-3 ×10^7 target-modified magnetic beads and ~55 pmol of fluorescein-labeled aptamer ssDNA in binding buffer (100 mM NaCl, 20 mM Tris-HCl, pH 7.6, 10 mM MgCl_2, 5 mM KCl, 1 mM CaCl_2) were employed for each experiment. The target-modified magnetic beads were prepared as a preliminary to the binding experiments, wherein Dynabeads® M-280 Streptavidin (Invitrogen, UK) were used in order to immobilize native, biotinylated protein A from *Staphylococcus aureus* (P2165, Sigma-Aldrich, Germany). Before each binding reaction the target-modified magnetic beads were washed several times in binding buffer and the aptamer ssDNA was thermally equilibrated by incubation at 90° C. for 8 min, on ice for 10 min and then converted to RT for ~5 min. The prepared aptamer ssDNA and the washed target-modified magnetic beads were then brought together for binding and incubated for 30 min at 21° C., while shaking. The non-bound ssDNA was removed and the binding complexes were washed several times in binding buffer. Thereafter, the target-bound ssDNA was eluted by means of heat by incubation of the binding complexes in binding buffer at 95° C. for 10 min, while shaking. […] The amount of ssDNA eluted could be quantified on the basis of the fluorescein labeling of the aptamer ssDNA and by means of a calibration curve. […]

Protein A (recombinant) = Protein A (recombinant) (UniProt P02976 P02976:37-485); test: SPR; steady-state avidity (bivalent analyte); 100 mM NaCl, 20 mM Tris-HCl pH 7.6, 10 mM MgCl2, 5 mM KCl, 1 mM CaCl2, 0.005% SP20; conditions: tags: Sigma-Aldrich P7837; label: 3'-biotin
Text: (§2) These changes are emitted as a measurable signal, expressed in resonance units (RU), and are proportional to the amount of target bound on the sensor surface. In the experiments presented here, non-specific ssDNA (SELEX library, 3'-biotinylated) was immobilized in the reference cell and ssDNA of the aptamer PA#2/8 (3'-biotinylated) was immobilized in the measurement cell. The target solution, comprising recombinant protein A (P7837, Sigma-Aldrich, Germany) or native protein A (P3838, Sigma-Aldrich, Germany) in binding buffer (100 mM NaCl, 20 mM Tris-HCl, pH 7.6, 10 mM MgCl_2, 5 mM KCl, 1 mM CaCl_2) with 0.005% SP20, was passed over the prepared sensor surfaces at a flow rate of 10 µl/min. […] The sensorgrams (FIG. 6, 8) show the double-referenced signal curve (measurement cell minus reference cell and buffer reference) during the binding and dissociation phase at different target concentrations in a range of 10 nM-5,000 nM protein A. During such a measurement series the 1,000 nM concentration of protein A was measured 3 times as a control. […]
(§3) From the binding data at the end of each binding phase with the different protein A concentrations a saturation curve was plotted (FIG. 7, 9) and the steady state affinity of the aptamer PA#2/8 for protein A was calculated from this. […]

Protein A (native) = Protein A (native) (UniProt P02976 P02976:37-485); test: as above; conditions: tags: Sigma-Aldrich P3838; label: 3'-biotin
Text: as §2, §3

[2] = target: T1, Protein A (native, biotinylated); test: pulldown; magnetic bead binding; retained and even improved vs full length; 10 mM MgCl2, 21 C; conditions: tags: biotin, immobilized on streptavidin Dynabeads M-280; Sigma-Aldrich P2165; label: fluorescein
Protocol: as §1

[3] = target: T1, Protein A (native, biotinylated); test: pulldown; magnetic bead binding; negative result; 10 mM MgCl2, 21 C; conditions: tags: biotin, immobilized on streptavidin Dynabeads M-280; Sigma-Aldrich P2165; label: fluorescein
Protocol: as §1

T1 sequence (P02976 37-485, one chain of several): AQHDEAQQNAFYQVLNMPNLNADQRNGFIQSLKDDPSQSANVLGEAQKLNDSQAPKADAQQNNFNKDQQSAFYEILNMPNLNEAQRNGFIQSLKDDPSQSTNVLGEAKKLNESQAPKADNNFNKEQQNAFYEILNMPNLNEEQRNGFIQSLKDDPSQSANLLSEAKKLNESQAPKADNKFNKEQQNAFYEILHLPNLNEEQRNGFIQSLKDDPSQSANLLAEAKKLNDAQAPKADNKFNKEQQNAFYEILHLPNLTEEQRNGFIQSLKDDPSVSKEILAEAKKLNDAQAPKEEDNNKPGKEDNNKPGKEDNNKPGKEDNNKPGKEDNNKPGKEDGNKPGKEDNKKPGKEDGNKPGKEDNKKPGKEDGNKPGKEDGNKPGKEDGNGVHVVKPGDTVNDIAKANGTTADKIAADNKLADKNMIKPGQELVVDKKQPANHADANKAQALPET
Chain of Protein A (recombinant) (P02976 37-485, one chain of several): as above
Chain of Protein A (native) (P02976 37-485, one chain of several): as above

B1: PA#2/8 [A19-76] (ssDNA)
DNA: AGCAACATGAGGGGGATAGAGGGGGTGGGTTCTCTCGGCTACAATCGTAATCAGTTAG
Question: Does B1 bind [1]?
Answer: no binding

B2: PA#2/8 (3'-biotin) (ssDNA)
DNA: ATACCAGCTTATTCAATTAGCAACATGAGGGGGATAGAGGGGGTGGGTTCTCTCGGCTACAATCGTAATCAGTTAG
Question: With B2 as the binder, how does the Kd (Protein A (recombinant)) read?
Answer: 188 nM

Question: What about the Kd (Protein A (native)) of the same binder?
Answer: 75.3 nM

B3: PA#2/8 [A1-58] (ssDNA)
DNA: ATACCAGCTTATTCAATTAGCAACATGAGGGGGATAGAGGGGGTGGGTTCTCTCGGCT
Question: Does B3 bind [2]?
Answer: binds

B4: PA#2/8CR40 (ssDNA)
DNA: AGCAACATGAGGGGGATAGAGGGGGTGGGTTCTCTCGGCT
Question: Does B4 bind [3]?
Answer: no binding
